The values that follow come from the DeepSol protein solubility set.

A short description of this series: soluble on expression in E. coli; label from the status in PepcDB or PDB records.
In the case of “MNYGFVKVAAAVPRVKVADCKFNSERLEGLITIAEGKGVQILTFPEMCITGYTCGDLFAQQLLLEQAEMALIQILNSTRQLDIISILGMPVVVNSTVINAAVVIQKGKILGVVPKTYLPNYKEFYEQRWFTSALQVSENSVRLCGQIVPMGNNLLFETAETTFGIEICEDLWATVPPSSSLALQGAEIIFNLSADDEGIGKHNYLCSLISQQSARCISGYVFSSSGFGESTTDVVFAGNGLIYENGYLLARSERFCMEEQLIINEIDVECIRAERRVNTTFAANKANCPGKEAVRISTEFVNSKDLNLTRTFNPHPFVPQGNELNSRCEEIFSIQIAGLAQRLLHTGAKTAVIGISGGLDSTLALLVCVKTFDKLGLSRKDILGITMPGFGTTDRTYHNAIDLMNSLGVSIREISIREACIQHFKDIGHDLNIHDVTYENSQARERTQILMDIANQTWGMVIGTGDLSELALGWATYNGDHMSMYGVNAGIPKTLVKHLVQWVAENGMDETSKATLLDIVDTPISPELIPADELEHHHHHH”, the “soluble on expression in E. coli” value was “soluble”. As for “MRGVVGVLALQGDFREHKEALKRLGIEAKEVRKKEHLEGLKALIVPGGESTTIGKLAREYGIEDEVRKRVEEGSLALFGTCAGAIWLAKEIVGYPEQPRLGVLEAWVERNAFGRQVESFEEDLEVEGLGSFHGVFIRAPVFRRLGEGVEVLARLGDLPVLVRQGKVLASSFHPELTEDPRLHRYFLELAGV”, the entry is “soluble”; as for “MIRQSVFLLAAIGATVFAQNDSFDLVDANNDGKLSEKELITFMRKRGRPDGQEYFQRFDLDRNGHLDISEFVPLVYEMSRRPVDMDYEFFKKMDLNDDGIVDKAEVEKIRKDNNDRIIDGILSIADTNRDGQLTYAEFKNHLSSGAKSLSPAEEQRNQALQLLSFIDANGDNKLDQLELYTFSQKTSTNKVTKSDVQQIFAMLDKNQDGYLTENELLQLAQQFSTIGNVRSTIPKV”, “not soluble”.

On to “MGSDKIHHHHHHMIVERVEEYLDRIEKINKDINALIEVKPEKVLEEAKKLEKDEKAKKKPLYGKIIVVKANINVEGYTISCASKTLENYIAPYDATVIEKIKENGGLIIGIANMDEFACGSSGETSYFGPTKNPRAKDRIPGGSSSGSAAAVSADLCDMALGSDTGGSIRNPASHCGVVGFKPSYGVVSRYGLCDLAMSFDQIGPLTKTAEDALLLTNIIKGKDLRDTTTVETKPFEKKDIKGFKVGVVKEFMDVADEKIRDKVEKAIEVFKDLGCEIVELSYKYVDLALPTYYLINYVEFFSSTRRYDGRRYGYKIEEVCGEEVLRRIMIGSMISQKEYSGKYYKNALKARNLMRNEMIKIMKDVDIIVGATVPKLPHKLGEKLTPMEMYSYDVLTVPANICGLCAGVVPCGDINGIPVGLQIQGKPFEDEKVLSAMIAFEKAME”, for which the “soluble on expression in E. coli” value is given as “not soluble”. As for “MGHHHHHHSHMASLFRSYLPAIWLLLSQLLRESLAAELRGCGPRFGKHLLSYCPMPEKTFTTTPGGWLLESGRPKEMVSTSNNKDGQALGTTSEFIPNLSPELKKPLSEGQPSLKKIILSRKKRSGRHRFDPFCCEVICDDGTSVKLCT”, the entry is “not soluble”; as for “MGSDKIHHHHHHMIIAGAVPIKGMELIKGPVKLNKDTFEIKNKELPISMGTCALLGAAFKTLEYFGKEDELTFITAGDVGEGDGSLEIYEELHEINDDLTIIHYIKPKISEIIKVDFSKNVIGDAGGMYAGKAAGIGNKFHMFFPDVGELAFLADENSSHPAYVRGFISEIDDQEIPKLIKMAYTQKMPKNMVVKGSKDHIVNEGNIIETVEYPKFEAMECIGGTGDTLTGIASSLIACGFKTEKAGILGCKLNRKLGELVKPRPDTQIYEIIQKIPEALKEFDL”, “not soluble”; as for “MPGRKRKLAAKTAELAPEAGEGSESTSLVGSADASASTAAGVAHTEQQEMPSGGLHESFLESIPPAASFLEELAWVESLASPSYVAYLCQMRRFDDVVAQRRLTTLQRWRQDPAYRQHVSQPIALFFLEQLCSAEFREALRHPAVAALYERQVDLYRRCYGNLLNTGESRVLR”, “not soluble”. “MTPTHPTVTELLLPLSEIDDRGVYFEDSFTSWRDHIRHGAAIAAALRERLDPARPPHVGVLLQNTPFFSATLVAGALSGIVPVGLNPVRRGAALAGDIAKADCQLVLTGSGSAEVPADVEHINVDSPEWTDEVAAHRDTEVRFRSADLADLFMLIFTSGTSGDPKAVKCSHRKVAIAGVTITQRFSLGRDDVCYVSMPLFHSNAVLVGWAVAAACQGSMALRRKFSASQFLADVRRYGATYANYVGKPLSYVLATPELPDDADNPLRAVYGNEGVPGDIDRFGRRFGCVVMDGFGSTEGGVAITRTLDTPAGALGPLPGGIQIVDPDTGEPCPTGVVGELVNTAGPGGFEGYYNDEAAEAERMAGGVYHSGDLAYRDDAGYAYFAGRLGDWMRVDGENLGTAPIERVLMRYPDATEVAVYPVPDPVVGDQVMAALVLAPGTKFDADKFRAFLTEQPDLGHKQWPSYVRVSAGLPRTMTFKVIKRQLSAEGVACADPVWPIRR”: the “soluble on expression in E. coli” value was “soluble”. The result for “MIYLKSFERNIRLINMKVVYDDVRVLKDIIQALARLVDEAVLKFKQDSVELVALDRAHISLISVNLPREMFKEYDVNDEFKFGFNTQYLMKILKVAKRKEAIEIASESPDSVIINIIGSTNREFNVRNLEVSEQEIPEINLQFDISATISSDGFKSAISEVSTVTDNVVVEGHEDRILIKAEGESEVEVEFSKDTGGLQDLEFSKESKNSYSAEYLDDVLSLTKLSDYVKISFGNQKPLQLFFNMEGGGKVTYLLAPKV” reads “soluble”. As for “FINNPNRHFANNYHFAKELALELKKQDVLELATAPSLQKRLRFYGIKNSNKFYLKALKQADKHDMDKKIVKVKLGKYEKVYQILNYD”, the entry is “not soluble”; as for “MGSDKIHHHHHHMPTLPMPSFLSSYWESSFNLKQHIQEFLQLDAEILETKLEFGQQQMAELGHKDFDWEQATAFYRDKVGEVYLFELGAWHLASHDYIGDTLRLIADHAHGCVLDFGGGIGTHAIGAALCPHVEQVVYCDINPINFDFVKYRAEKLGLSEKIIFCVEIPPQKTFDTIMSFDVLEHLPDPSQQLLEFHQILADEGKMILNWHFFKGFNQEHPFHLDDPQAIDTFFKTIQSNCLEVFHPYHITARCYRKWN”, “not soluble”. The result for “MSWQEKINAALDARRAADALRRRYPVAQGAGRWLVADDRQYLNFSSNDYLGLSHHPQIIRAWQQGAEQFGIGSGGSGHVSGYSVVHQALEEELAEWLGYSRALLFISGFAANQAVIAAMMAKEDRIAADRLSHASLLEAASLSPSQLRRFAHNDVTHLARLLASPCPGQQMVVTEGVFSMDGDSAPLAEIQQVTQQHNGWLMVDDAHGTGVIGEQGRGSCWLQKVKPELLVVTFGKGFGVSGAAVLCSSTVADYLLQFARHLIYSTSMPPAQAQALRASLAVIRSDEGDARREKLAALITRFRAGVQDLPFTLADSCSAIQPLIVGDNSRALQLAEKLRQQGCWVTAIRPPTVPAGTARLRLTLTAAHEMQDIDRLLEVLHGNG” reads “soluble”. As to “MSLSKILIAGCGDLGLELARRLTAQGHEVTGLRRSAQPMPAGVQTLIADVTRPDTLASIVHLRPEILVYCVAASEYSDEHYRLSYVEGLRNTLSALEGAPLQHVFFVSSTGVYGQEVEEWLDEDTPPIAKDFSGKRMLEAEALLAAYSSTILRFSGIYGPGRLRMIRQAQTPEQWPARNAWTNRIHRDDGAAFIAYLIQQRSHAVPERLYIVTDNQPLPVHDLLRWLADRQGIAYPAGATPPVQGNKKLSNARLLASGYQLIYPDYVSGYGALLAAMREGHHHHHH”, the “soluble on expression in E. coli” value is recorded as “soluble”.

On to “LVLKVVTVTRNLDPDDTARKKAPPPPKRAPTTALTLRSKSMTSELEELVDKDKPEEIVPASKPSRAAENMAVEPRVATIKQRPSSRCFPAGSDMNSVYERQGIAVMTPTVPGSPKAPFLGIPRGTMRRQKSIDSRIFLSGITEEERQFLAPPMLKFTRSLSMPDTSEDIPPPPQSVPPSPPPPSPTTYNCPKSPTPRVYGTIKPAFNQNSAAKVSPATRSDTVATMMREKGMYFRRELDRYSLDSEDLYSRNAGPQANFRNKRGQMPENPYSEVGKIASKAVYVPAKPARRKGMLVKQSNVEDSPEKTCSIPIPTIIVKEPSTSSSGKSSQGSSMEIDPQAPEPPSQLRPDESLTVSSPFAAAIAGAVRDREKRLEARRNSPAFLSTDLGDEDVGLGPPAPRTRPSMFPEEGDFADEDSAEQLSSPMPSATPREPENHFVGGAEASAPGEAGRPLNSTSKAQGPESSPAVPSASSGTAGPGNYVHPLTGRLLDPSSPLALALSARDRAMKESQQGPKGEAPKADLNKPLYIDTKMRPSLDAGFPTVTRQNTRGPLRRQETENKYETDLGRDRKGDDKKNMLIDIMDTSQQKSAGLLMVHTVDATKLDNALQEEDEKAEVEMKPDSSPSEVPEGVSETEGALQISAAPEPTTVPGRTIVAVGSMEEAVILPFRIPPPPLASVDLDEDFIFTEPLPPPLEFANSFDIPDDRAASVPALSDLVKQKKSDTPQSPSLNSSQPTNSADSKKPASLSNCLPASFLPPPESFDAVADSGIEEVDSRSSSDHHLETTSTISTVSSISTLSSEGGENVDTCTVYADGQAFMVDKPPVPPKPKMKPIIHKSNALYQDALVEEDVDSFVIPPPAPPPPPGSAQPGMAKVLQPRTSKLWGDVTEIKSPILSGPKANVISELNSILQQMNREKLAKPGEGLDSPMGAKSASLAPRSPEIMSTISGTRSTTVTFTVRPGTSQPITLQSRPPDYESRTSGTRRAPSPVVSPTEMNKETLPAPLSAATASPSPALSDVFSLPSQPPSGDLFGLNPAGRSRSPSPSILQQPISNKPFTTKPVHLWTKPDVADWLESLNLGEHKEAFMDNEIDGSHLPNLQKEDLIDLGVTRVGHRMNIERALKQLLDR”, for which the “soluble on expression in E. coli” value is “soluble”.

With “GSHMASTISVKDENGTVKVPKDAKRIVVLEYSFADALAALDVKPVGIADDGKKKRIIKPVREKIGDYTSVGTRKQPNLEEISKLKPDLIIADSSRHKGINKELNKIAPTLSLKSFDGDYKQNINSFKTIAKALNKEKEGEKRLAEHDKLINKYKDEIKFDRNQKVLPAVVAKAGLLAHPNYSYVGQFLNELGFKNALSDDVTKGLSKYLKGPYLQLDTEHLADLNPERMIIMTDHAKKDSAEFKKLQEDATWKKLNAVKNNRVDIVDRDVWARSRGLISSEEMAKELVELSKKEQK”, the “soluble on expression in E. coli” value is reported as “soluble”. The result for “MGSDKIHHHHHHMKLRLRKPMRSAGNMSSLVDFYNDFITRHGFEERKGIEETLRYLENGHNVILKAPTGYGKTTLTMILANAVSSNIDIGSRVIHVLPYRAIVQDLYLKLKKYADKGIIYTKSIGAQDMDYHDSPFFMKKVNVTTLDTFILNLFKLPTIDFKLIFKNYGSHYEFPRALIYSSIVIFDEFHLLGEDGKSLGAGLSAIEVLSDAGVPIVVTSATIDKGLERVLMDKLGKSGKVVYASDFKIDRKIYVNELEKDEISIADEKVKEGKRVLLVYNTRMGAIEAYWKLKERGLSPILIHSKFSKKDRIDKVNKINDAKLVVSTQVIEAGIDTSFDVLITEACPSHNLIQRAGRVARYGKGGKGKLEGEVYIFPFSGKVYNEGEVKETMKRVRKLKTIDESLLIERDYTKEIDSILARDLSVIDNSVFVDYKKVKSLYENICSITRETSIILGFPPNSDNVDDAIPLTEEEAIKIIKSKGSSAFVGNSNIKLYAGKCLQLEMIKNDILGVRIQDYNSEIGGVY” reads “not soluble”; that for “MGSDKIHHHHHHMRPDCTDFRQLFLDDVPMMDMRAPVEFAKGAFPGVVNLPLMNDQERQKVGTCYKQQGQAAAIALGHQLVSGATKQARLEAWAAFAKAHPDGYLYCFRGGLRSQIVQGWLRDEAGIQYPRVKGGYKAMRTFLLETTQQAVEQCDFVLVGGLTGTGKTDVLHQLDNVLDLEGHANHRGSSFGKRATAQPAQIDFENQLAIDVLKKRARGIGQFVLEDEGRIVGSCTVPLELYQGMQHYPLVWLEDSFTNRVERILRDYVVNLSAEFKAVHGEEDGPRLFAERMLQSMANIYKRLGGERHQRLSEMLREALQEQQRSGAVDLHRGWIEGLLNEYYDPMYAYQRAAKAERIEFAGDAVEVREYLKARALRQPRK”, “not soluble”.
